Source: patent US5688912A, “Peptide ligands which bind to von willebrand factor” (Bayer Corporation, priority 1995, dated 1997)
No end group written: not given here.

Legend:
Assay type in all cases: binding
[1] = target: T1, von Willebrand Factor (vWF) (Homo sapiens, UniProt P04275); assay: Purification of vWF from cryoprecipitate PEG filtrate of human plasma on peptide-Toyopearl column
Protocol: The starting material called PEG filtrate was processed from human plasma cryoprecipitate at Bayer Corp. (Clayton, N.C.). This material contained vWF, FVIII, significant fibrinogen, fibronectin, and IgM. The PEG filtrate was treated with 1% TNBP (tri-n-butylphosphate) and 0.5 % Tween 20 (from Aldrich) at 30° C. for 3 hours. After the treatment, the mixture was directly injected onto peptide affinity columns.
Confirmation of the purification of vWF on RVRSFY-Toyopearl was performed using PEG filtrate as the starting material (FIG. 2). Inclusion of a 0.15M NaCl wash and an additional 0.35M NaCl wash removed the bulk of the albumin. Bound vWF was eluted with 2% acetic acid.
The PEG filtrate was treated with virus inactivation reagents, 1% TNBP and 0.5% Tween 20 at 30° C. for 3 hours. The treated PEG fitrate was injected directly into the column. […] Approximately 74% of the total vWF was eluted with 0.35M CaCl2 (small peak at 10 min).

[2] = target: T1, von Willebrand Factor (vWF); assay: Peptide-Toyopearl affinity column chromatography of Koate; vWF in fractions by ELISA, protein by A280; design: Koate® containing vWF, FVIII, and albumin was a product of Bayer Corp; tissue Bayer Corp. (Clayton, N.C.) Koate; host or cells: plasma-derived concentrate (Koate); conditions: for % vWF by ELISA, flow through / % area of acid peak / % vWF by ELISA, acid / % vWF by ELISA, salt: Table 2; for % vWF by ELISA, flow through / % area of acid peak: 1 ml column; for % area of acid peak: 2% acetic acid peak; for % vWF by ELISA, salt: NaCl gradient eluate
Protocol: The gel slurry (1 ml wet gel mixed with 2 ml degassed PBS and 1 M sodium chloride buffer) was transferred into a packing device (from PerSeptive Biosystems, Framingham, Mass.) and packed into a PEEK column (0.75 cm×5 cm from Alltech, Deerfield, Ill.) at a flow rate of 8 ml/min. […] The column was washed with at least 4 bed volumes of binding buffer (10 mM HEPES, 100 mM NaCl, 5 mM calcium chloride at pH 7) and elution buffer (2% acetic acid), then equilibrated with binding buffer.
Protein concentrations were monitored by A280 absorbance. Samples were characterized using vWF ELISA. Briefly, anti-vWF antibody (from Accurate Inc. N.Y.) was coated on each well of a microliter plate (96 wells from Corning, N.Y. 14831) overnight using 100 μl solution of antibody diluted 200 times in 0.1M sodium bicarbonate buffer at pH 9.6. Each well was then blocked with 300 μl solution of 1% BSA in PBS for 1 hour at room temperature. The plate was washed 5 times with PBS. Pure vWF and the collected samples were diluted to a concentration range between 0.02 to 0.2 μg/ml using 1 mg/ml BSA in PBS. Each sample (100 μl) was incubated with the anti-vWF coated well for 1 hour at room temperature and the plate was washed 5 times with PBS plus 0.1% Tween 20. A second anti-vWF antibody with horse radish peroxidase (HRP) conjugate (from DAKO, Glostrup, Denmark) at a concentration of 1 to 500 dilution was introduced to each well and incubated for i hour at room temperature. The plate was washed again with PBS plus 0.1% Tween 20 for 5 times. Substrate ABTS (2,2'-azino-bis(3-ethylbenz-thiazoline-6-sulfonic acid)) and H2 O2 were used for the kinetic reading at 410 nm using Bio Kinetics Reader from BioTek (Winooski, Vt.).
Peptide RLRSFY was directly synthesized (25) onto a modified Toyopearl resin (--(β-Ala)2 -Toyopearl) and the resin was packed in a 1 ml column (0.7×2.5 cm). Koate (Bayer's product containing vWF, FVIII and human albumin) was applied to the column at a flow rate of 2 ml/min in binding buffer (10 mM HEPES, 5 mM calcium chloride and 0.1M NaCl, pH 7). After 1 min of washing in binding buffer, a linear gradient from 0.1 to 1M NaCl in HEPES buffer was applied to the column over 5 min. The elution with high salt concentration was maintained for another 1 min, before 2% acetic acid was used to elute the retained protein. […] The remainder was eluted using 2% acetic acid. In a control experiment in which no peptide was attached to the resin (only --(β-Ala)2 -Toyopearl), almost all protein from 0.1 ml Koate flowed through the column under the same conditions used for the peptide-Toyopearl column.
Single conservative amino acid substitutions at the first three positions of RLRSFY were synthesized directly on (β-Ala)2 -Toyopearl. Amino acid substitutions used for both positions of arginine (R) were histidine (H), lysine (K), glutamine (Q), and asparagine (N). Substitutions for leucine (L) include isoleucine (I), valine (V), phenylalanine (F), and tyrosine (Y). These individual substitutions created 12 unique peptide sequences. (SEQ ID NOS: 1 to 12 ) After the resins were packed into 1 ml glass columns, 0.1 ml Koate was applied to each column and eluted with sodium chloride gradient and 2% acetic acid, same as in FIG. 1. Fractions were collected and analyzed for A280 absorbance and ELISA. […] The substitution of the R at the third position from the N-terminus had no effect on the capture of vWF from Koate. […] Maximum vWF binding occurred when L was substituted for V.

[3] = target: T1, von Willebrand Factor (vWF); assay: Batch adsorption isotherm of vWF onto peptide-Toyopearl, Langmuir fit; design: Koate® containing vWF, FVIII, and albumin was a product of Bayer Corp; tissue Bayer Corp. (Clayton, N.C.) Koate; host or cells: plasma-derived concentrate (Koate)
Protocol: Adsorption isotherms were measured in a batch mode. In a siliconized microcentrifuge tube, 0.1 ml wet gel was mixed with vWF solution of 10 mM HEPES, 5 mM calcium chloride and 0.5M sodium chloride at pH 7 in a total volume of 0.3 ml. The microcentrifuge tube was incubated at 25° C. for 20 minutes, then the gel was separated from the solution by microcentrifugation. The concentrations of vWF in solutions were measured both by absorbance at 280 nm with an extinction coefficient of 1.2 for 1 mg/ml vWF and by ELISA.
Interactions between RVRSFY directly synthesized on Toyopearl and vWF were studied through adsorption isotherm measurements. Because vWF consists of a wide range of molecular weights, complex theoretical analyses are required to obtain binding constants from the adsorption isotherms. In addition, different multimers of vWF may have different binding constants. To simplify the analyses, vWF with molecular weight around 1000 kDa was fractionated from Koate using size exclusion chromatography with Bio-Gel A-5M gel (BioRad) and analyzed by nonreducing agarose gel electrophoresis.
An increase of peptide density increases adsorption of vWF. A minimum peptide density, 32 mg peptide Ac-RVRSFYK/ml resin ([…]), is required for the binding of vWF to the peptide. The Langmuir equation was used to fit these isotherms, and the association constants and maximum capacities obtained from curve fits are listed in Table 3. They show an increase of association constant and maximum binding capacity with an increase of peptide density mobilized on the Toyopearl resin.

[4] = target: T1, von Willebrand Factor (vWF); assay: Peptide-Toyopearl affinity column chromatography of Koate; vWF in fractions by ELISA, protein by A280; design: Koate® containing vWF, FVIII, and albumin was a product of Bayer Corp; tissue Bayer Corp. (Clayton, N.C.) Koate; host or cells: plasma-derived concentrate (Koate); conditions: for percentage of vWF eluted: 0.5M calcium chloride

Substance	% vWF by ELISA, flow through ([2]; 0.1 ml Koate) [%]	% area of acid peak ([2]; 0.1 ml Koate) [%]	% vWF by ELISA, acid ([2]; 2% acetic acid eluate) [%]	% vWF by ELISA, salt [2] [%]	further results
Ac-RVRSFYK-amide (Ac-RVRSFYK-NH2) [Ac-RVRSFYK-Toyopearl, peptide immobilized to Toyopearl-Epoxy-650M resin through the C-terminal lysine]					total vWF eluted ([1]; PEG filtrate treated with TNBP/Tween 20, 54 mg/ml peptide, eluted with 0.35M CaCl2): Approximately 74%; vWF recovered in all fractions (ELISA) ([2]; 0.1 ml Koate, 0.4 ml column, 54 mg/ml peptide): 87.8%; percentage of vWF eluted ([2]; 0.5M calcium chloride, 30° C.): 89%; vWF captured by the peptide column ([2]; Koate, between pH 6 and 7): about 95%; vWF captured by the peptide column ([2]; Koate, solution pH 5): 91%; captured vWF eluted ([2]; calcium and magnesium concentrations higher than 0.3M): about 80%; release of captured vWF by salt elution ([2]; elution with 2M NaCl, Koate): not released; Association constant ([3]; peptide density 32 mg/ml): 882000 M⁻¹; Maximum capacity ([3]; peptide density 32 mg/ml): 2.32 mg/mL; Association constant ([3]; peptide density 45 mg/ml): 1.12e+06 M⁻¹; Maximum capacity ([3]; peptide density 45 mg/ml): 7.3 mg/mL; Association constant ([3]; peptide density 54 mg/ml): 1.68e+06 M⁻¹; Maximum capacity ([3]; peptide density 54 mg/ml): 9.7 mg/mL; Association constant ([3]; peptide density 60 mg/ml): 2.06e+06 M⁻¹; Maximum capacity ([3]; peptide density 60 mg/ml): 10.33 mg/mL; total vWF in the CaCl2 fraction (ELISA) ([4]; 0.1 ml Koate, 0.4 ml column, 54 mg/ml peptide, 0.5M CaCl2): 82.5%; percentage of vWF eluted ([4]; 22° C.): 80%; percentage of vWF eluted ([4]; 26° C.): 85%; vWF captured by the peptide column ([4]; Koate, solution pH 4.6): 65%
HLRSFY (not fully specified (C-terminus))	0.75	26.7	32.7	0.28	
KLRSFY (not fully specified (C-terminus))	1.03	27.1	26.94	9.83	
NLRSFY (not fully specified (C-terminus))	19.96	14.8	6.98	11.88	
QLRSFY (not fully specified (C-terminus))	29.45	9.2	2.20	11.69	
RFRSFY (not fully specified (C-terminus))	0.20	27.8	47.96	0.07	
RIRSFY (not fully specified (C-terminus))	1.92	28.0	44.78	4.09	
RLHSFY (not fully specified (C-terminus))	1.77	24.9	50.72	2.89	
RLKSFY (not fully specified (C-terminus))	0.60	25.1	45.58	3.59	
RLNSFY (not fully specified (C-terminus))	0.26	24.5	47.68	1.50	
RLQSFY (not fully specified (C-terminus))	0.46	20.1	50.68	0.54	
RLRSFY (not fully specified (C-terminus)) [RLRSFY-Toyopearl, phage-library-derived peptide directly synthesized onto modified Toyopearl resin (--(β-Ala)2-Toyopearl)]					protein that did not bind to the peptide resin or was loosely bound and eluted by sodium chloride ([2]; 0.1 ml Koate): about 60%; A280, flow through ([2]; 0.1 ml Koate (input A280 7.8), flow through fraction ×4 ml): 0.071; A280, acid ([2]; 0.1 ml Koate, 2% acetic acid fraction ×4 ml): 0.070; A280, salt ([2]; 0.1 ml Koate, NaCl gradient 0.1 to 1M fraction ×12 ml): 0.014; vWF recovered in the acid peak ([2]; Koate, 2% acetic acid): Approximately one-half; retention of vWF by column ([2]; Koate, could not be eluted by sodium chloride up to 1M): Most of the vWF was retained; % vWF activity by ELISA, acid ([2]; Table 1, 0.1 ml Koate, 2% acetic acid eluate): 49.78%; % vWF activity by ELISA, salt ([2]; Table 1, 0.1 ml Koate, NaCl eluate): 0.09%; % vWF activity by ELISA, flow through ([2]; Table 1, 0.1 ml Koate, flow through): 1.6%; % recovery (A280 mass balance) ([2]; total protein recovered from column): 95%
RVRSFY (not fully specified (C-terminus))	0.09	30.2	55.78	0.08	purification of vWF (SDS-PAGE) ([1]; PEG filtrate, 0.15M and 0.35M NaCl washes, 2% acetic acid elution): highly purified; Association constant ([3]; vWF around 1000 kDa, peptide directly synthesized on Toyopearl, Langmuir fit): 1.31e+06 M⁻¹
RYRSFY (not fully specified (C-terminus))	1.65	27.1	51.72	0.14	
